From US20180079802A1

Key:
[1] = molecular target: Recombinant CHIKV E2 ectodomain protein (corresponding to the CHIKV-LR2006 strain) (Chikungunya virus strain LR2006); test: BLI competition, E2 ectodomain on anti-Penta-His tip; first mAb 1H12
[2] = molecular target: Recombinant CHIKV E2 ectodomain protein (corresponding to the CHIKV-LR2006 strain) (Chikungunya virus strain LR2006); test: BLI competition, E2 ectodomain on anti-Penta-His tip; first mAb 4B8
[3] = molecular target: Recombinant CHIKV E2 ectodomain protein (corresponding to the CHIKV-LR2006 strain) (Chikungunya virus strain LR2006); test: BLI competition, E2 ectodomain on anti-Penta-His tip; first mAb CHK-141 (f2)
[4] = molecular target: Recombinant CHIKV E2 ectodomain protein (corresponding to the CHIKV-LR2006 strain) (Chikungunya virus strain LR2006); test: BLI competition, E2 ectodomain on anti-Penta-His tip; first mAb 5N23
[5] = molecular target: Recombinant CHIKV E2 ectodomain protein (corresponding to the CHIKV-LR2006 strain) (Chikungunya virus strain LR2006); test: BLI competition, E2 ectodomain on anti-Penta-His tip; first mAb CHK-84 (f1)
[6] = molecular target: Recombinant CHIKV E2 ectodomain protein (corresponding to the CHIKV-LR2006 strain) (Chikungunya virus strain LR2006); test: BLI competition, E2 ectodomain on anti-Penta-His tip; first mAb CHK-265 (f3)
[7] = molecular target: Recombinant CHIKV E2 ectodomain protein (corresponding to the CHIKV-LR2006 strain) (Chikungunya virus strain LR2006); test: BLI competition, E2 ectodomain on anti-Penta-His tip; first mAb CHK-88 (f4)
[8] = molecular target: Recombinant CHIKV E2 ectodomain protein (corresponding to the CHIKV-LR2006 strain) (Chikungunya virus strain LR2006); test: BLI competition, E2 ectodomain on anti-Penta-His tip; first mAb 1O6
[9] = molecular target: Recombinant CHIKV E2 ectodomain protein (corresponding to the CHIKV-LR2006 strain) (Chikungunya virus strain LR2006); test: BLI competition, E2 ectodomain on anti-Penta-His tip; first mAb 5M16
[10] = molecular target: Recombinant CHIKV E2 ectodomain protein (corresponding to the CHIKV-LR2006 strain) (Chikungunya virus strain LR2006); test: BLI competition, E2 ectodomain on anti-Penta-His tip; first mAb 3A2
[11] = molecular target: Recombinant CHIKV E2 ectodomain protein (corresponding to the CHIKV-LR2006 strain) (Chikungunya virus strain LR2006); test: BLI competition, E2 ectodomain on anti-Penta-His tip; first mAb 9D14
[12] = molecular target: Recombinant CHIKV E2 ectodomain protein (corresponding to the CHIKV-LR2006 strain) (Chikungunya virus strain LR2006); test: BLI competition, E2 ectodomain on anti-Penta-His tip; first mAb 5F10 (r1)
[13] = molecular target: Recombinant CHIKV E2 ectodomain protein (corresponding to the CHIKV-LR2006 strain) (Chikungunya virus strain LR2006); test: BLI competition, E2 ectodomain on anti-Penta-His tip; first mAb 5O14
[14] = molecular target: Recombinant CHIKV E2 ectodomain protein (corresponding to the CHIKV-LR2006 strain) (Chikungunya virus strain LR2006); test: ELISA, E2 ectodomain coated

| percent binding of competing mAb in presence of first mAb [1] | percent binding of competing mAb in presence of first mAb [2] | percent binding of competing mAb in presence of first mAb [3] | percent binding of competing mAb in presence of first mAb [4] | percent binding of competing mAb in presence of first mAb [5] | percent binding of competing mAb in presence of first mAb [6] | percent binding of competing mAb in presence of first mAb [7] | percent binding of competing mAb in presence of first mAb [8] | percent binding of competing mAb in presence of first mAb [9] | percent binding of competing mAb in presence of first mAb [10] | percent binding of competing mAb in presence of first mAb [11] | percent binding of competing mAb in presence of first mAb [12] | percent binding of competing mAb in presence of first mAb [13] | Substance | OD [14] |
| --- | --- | --- | --- | --- | --- | --- | --- | --- | --- | --- | --- | --- | --- | --- |
| 52% | 92% | 86% | 98% | 92% | 2% | 3% | 85% | 84% | 95% | 105% | -3% | 85% | CHK-265 (antibody) |  |
|  |  |  |  |  |  |  |  |  |  |  |  |  | murine CHK-152 (antibody) | < 0.1 od |
